These are literature values, as cited in paper PMC11260871.

Targets include laminin alpha5 (UniProt O15230); laminin alpha1 (UniProt P25391); laminin alpha4 (UniProt Q16363); laminin alpha2 (UniProt P24043); laminin gamma1 LEb (UniProt P11047).
Series [1] deals with laminin gamma LN domain LN (UniProt P11047).

UniProt O15230, sequence (O15230 36-3695): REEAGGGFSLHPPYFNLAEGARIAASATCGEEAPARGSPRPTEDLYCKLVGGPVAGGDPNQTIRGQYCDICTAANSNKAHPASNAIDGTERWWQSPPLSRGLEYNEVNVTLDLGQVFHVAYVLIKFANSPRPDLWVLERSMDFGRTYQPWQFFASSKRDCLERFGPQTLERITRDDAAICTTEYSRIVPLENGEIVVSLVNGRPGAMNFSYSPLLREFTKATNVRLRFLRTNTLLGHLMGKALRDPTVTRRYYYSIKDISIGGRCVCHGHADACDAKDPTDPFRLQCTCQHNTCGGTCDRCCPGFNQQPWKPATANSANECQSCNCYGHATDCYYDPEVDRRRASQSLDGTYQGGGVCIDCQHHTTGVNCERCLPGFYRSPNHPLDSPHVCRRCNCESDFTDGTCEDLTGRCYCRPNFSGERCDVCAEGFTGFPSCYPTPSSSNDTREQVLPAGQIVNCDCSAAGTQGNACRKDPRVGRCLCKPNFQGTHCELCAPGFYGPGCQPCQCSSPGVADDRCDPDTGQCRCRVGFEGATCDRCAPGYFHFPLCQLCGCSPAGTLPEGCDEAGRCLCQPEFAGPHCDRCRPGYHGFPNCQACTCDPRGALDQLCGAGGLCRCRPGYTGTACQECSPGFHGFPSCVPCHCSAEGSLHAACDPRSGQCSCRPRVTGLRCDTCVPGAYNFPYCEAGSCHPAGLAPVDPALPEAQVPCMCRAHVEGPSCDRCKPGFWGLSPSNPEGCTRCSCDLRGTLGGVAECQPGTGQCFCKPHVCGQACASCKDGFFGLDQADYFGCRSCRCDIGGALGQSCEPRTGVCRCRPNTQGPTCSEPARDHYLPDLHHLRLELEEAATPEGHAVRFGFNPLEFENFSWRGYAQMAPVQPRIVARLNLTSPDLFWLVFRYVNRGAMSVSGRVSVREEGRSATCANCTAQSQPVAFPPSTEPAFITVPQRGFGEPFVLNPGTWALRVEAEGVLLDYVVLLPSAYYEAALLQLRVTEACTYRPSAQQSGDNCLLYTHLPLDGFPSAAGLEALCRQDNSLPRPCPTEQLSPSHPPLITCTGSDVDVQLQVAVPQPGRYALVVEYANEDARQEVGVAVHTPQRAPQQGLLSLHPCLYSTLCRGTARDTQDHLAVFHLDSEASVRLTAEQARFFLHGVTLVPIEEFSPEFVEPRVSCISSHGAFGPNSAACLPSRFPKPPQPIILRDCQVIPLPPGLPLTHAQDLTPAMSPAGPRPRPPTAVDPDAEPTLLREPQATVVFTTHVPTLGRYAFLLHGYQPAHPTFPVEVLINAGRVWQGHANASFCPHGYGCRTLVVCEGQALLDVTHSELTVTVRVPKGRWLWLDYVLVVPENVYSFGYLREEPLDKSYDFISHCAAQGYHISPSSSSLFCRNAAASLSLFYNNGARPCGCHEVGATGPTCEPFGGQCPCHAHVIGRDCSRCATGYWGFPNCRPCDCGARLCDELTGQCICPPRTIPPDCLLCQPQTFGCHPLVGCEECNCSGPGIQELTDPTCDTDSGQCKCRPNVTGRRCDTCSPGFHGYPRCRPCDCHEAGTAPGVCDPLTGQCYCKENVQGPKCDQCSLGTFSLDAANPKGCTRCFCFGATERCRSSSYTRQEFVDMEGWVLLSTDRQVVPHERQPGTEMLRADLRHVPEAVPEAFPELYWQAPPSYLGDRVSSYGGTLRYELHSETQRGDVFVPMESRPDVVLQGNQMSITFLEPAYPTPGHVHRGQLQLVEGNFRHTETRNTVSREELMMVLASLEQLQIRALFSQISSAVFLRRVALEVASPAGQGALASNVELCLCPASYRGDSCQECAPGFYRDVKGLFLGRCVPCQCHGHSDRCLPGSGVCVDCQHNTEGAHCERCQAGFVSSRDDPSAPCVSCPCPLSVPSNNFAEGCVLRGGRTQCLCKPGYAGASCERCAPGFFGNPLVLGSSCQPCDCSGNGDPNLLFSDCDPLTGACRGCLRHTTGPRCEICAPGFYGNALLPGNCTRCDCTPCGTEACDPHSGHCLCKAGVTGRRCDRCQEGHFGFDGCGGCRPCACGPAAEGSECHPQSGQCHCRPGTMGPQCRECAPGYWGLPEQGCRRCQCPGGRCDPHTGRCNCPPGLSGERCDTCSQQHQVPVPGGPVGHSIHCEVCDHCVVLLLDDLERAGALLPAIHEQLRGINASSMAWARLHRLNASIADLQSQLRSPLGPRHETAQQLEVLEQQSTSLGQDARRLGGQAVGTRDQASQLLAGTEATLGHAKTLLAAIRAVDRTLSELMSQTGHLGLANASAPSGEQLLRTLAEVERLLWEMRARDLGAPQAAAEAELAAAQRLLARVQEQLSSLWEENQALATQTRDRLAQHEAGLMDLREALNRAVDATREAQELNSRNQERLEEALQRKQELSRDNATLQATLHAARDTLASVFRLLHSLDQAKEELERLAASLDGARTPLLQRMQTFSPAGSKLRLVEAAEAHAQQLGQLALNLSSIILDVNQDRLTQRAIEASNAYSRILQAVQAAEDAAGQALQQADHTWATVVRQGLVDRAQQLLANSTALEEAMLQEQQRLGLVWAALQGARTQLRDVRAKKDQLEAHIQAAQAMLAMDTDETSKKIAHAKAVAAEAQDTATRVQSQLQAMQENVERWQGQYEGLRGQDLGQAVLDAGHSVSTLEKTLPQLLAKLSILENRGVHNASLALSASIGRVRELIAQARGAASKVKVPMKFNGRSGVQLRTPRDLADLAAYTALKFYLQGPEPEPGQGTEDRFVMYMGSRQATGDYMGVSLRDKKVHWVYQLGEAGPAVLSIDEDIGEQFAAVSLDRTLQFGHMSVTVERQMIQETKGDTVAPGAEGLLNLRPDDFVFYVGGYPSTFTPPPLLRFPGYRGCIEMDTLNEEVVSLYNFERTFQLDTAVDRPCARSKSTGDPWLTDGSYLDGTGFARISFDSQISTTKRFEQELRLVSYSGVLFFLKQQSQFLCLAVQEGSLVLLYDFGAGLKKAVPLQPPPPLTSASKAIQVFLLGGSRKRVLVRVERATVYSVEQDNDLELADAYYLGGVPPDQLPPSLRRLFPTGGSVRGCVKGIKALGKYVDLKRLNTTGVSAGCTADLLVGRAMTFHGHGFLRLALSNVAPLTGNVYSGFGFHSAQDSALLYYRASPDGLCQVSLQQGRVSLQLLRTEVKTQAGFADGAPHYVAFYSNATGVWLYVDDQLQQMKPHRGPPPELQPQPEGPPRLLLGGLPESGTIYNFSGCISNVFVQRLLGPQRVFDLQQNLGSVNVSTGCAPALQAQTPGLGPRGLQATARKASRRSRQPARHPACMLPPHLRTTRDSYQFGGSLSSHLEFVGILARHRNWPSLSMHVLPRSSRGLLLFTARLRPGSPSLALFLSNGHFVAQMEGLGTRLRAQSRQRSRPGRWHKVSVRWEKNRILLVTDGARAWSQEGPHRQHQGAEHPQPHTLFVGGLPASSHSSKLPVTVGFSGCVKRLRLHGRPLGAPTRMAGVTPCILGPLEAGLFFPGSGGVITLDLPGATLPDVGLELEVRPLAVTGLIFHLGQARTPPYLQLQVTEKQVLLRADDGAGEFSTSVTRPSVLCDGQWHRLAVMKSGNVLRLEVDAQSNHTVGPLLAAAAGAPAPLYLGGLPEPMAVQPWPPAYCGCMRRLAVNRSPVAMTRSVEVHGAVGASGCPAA

“alpha-dystroglycan (from UniProt Q14118)”: the Kd in the series with laminin alpha5 was 150 nM; with laminin alpha1 it was 20 nM; with laminin alpha4, above 1000 nM; in the series with laminin alpha2 it was 43 nM.
In the case of “laminin beta LN domain LN (from UniProt P07942)”, the Kd in series [1] is 18000 nM.
As for nidogen-1 G3 (from UniProt P14543), the Kd with laminin gamma1 LEb was below 1 nM.

Broadly, the Kd is a measure of binding affinity in units of concentration.
